Columns and labels:
apo‐YggS = target: T1, apo‐YggS (Escherichia coli, UniProt P67080); assay: biochemical; type: binding; details: WT apo-YggS
T1 construct: made in house; host or cells: E. coli HMS174(DE3)
Description: Equilibrium binding analyses were carried out by measuring the decrease of protein intrinsic fluorescence observed upon the addition of increasing PLP concentrations to a fixed concentration of apo‐YggS (Figure 1b).
Dissociation constants were calculated from saturation curves obtained measuring the protein fluorescence emission intensity as a function of increasing PLP concentration. […] Fluorescence emission spectra were recorded from 310 to 450 nm upon excitation at 280 nm. Excitation and emission slits were set at 3 and 5 nm, respectively.

[1] = Covalent (Schiff base) PLP binding judged by absorption spectra; details: ~416–420 nm band
Description: Our strategy was to start from the K36A variant and gradually add further variations so as to obtain all possible combinations of double, triple, and quadruple variants. Variations of the last two residues at the C‐terminal end of the protein, K233 and K234, were always introduced together and are therefore considered as a single K233A/K234A variation.
All spectroscopic measurements were carried out at 20°C in 20 mM NaHEPES pH 7.5. UV–visible spectra were recorded with a Hewlett‐Packard 8453 diode‐array spectrophotometer. Far‐UV (190–250 nm) and Near‐UV–visible (250–500 nm) CD spectra were measured with a Jasco 710 spectropolarimeter equipped with a DP 520 processor using 0.1‐cm (far‐UV) or 1‐cm path length quartz cuvettes and results were expressed as ellipticity [Θ]. Absorption spectra of WT and variant forms were deconvoluted into their component bands using Metzler's band‐shape analysis method.[22]

[2] = Differential scanning fluorimetry (DSF), apparent Tm of YggS forms; type: physicochemical; details: for T m (°C) Apo +2 μM PLP: 2 μM protein + 2 μM (equimolar) PLP; for T m (°C) Apo + 300 μM PLP: 2 μM protein + 300 μM PLP; for T m (°C) Apo: apo-form, 2 μM protein, no PLP
Description: Differential scanning fluorimetry (DSF) assays were performed on a Real Time PCR Instrument (CFX Connect Real Time PCR system, Bio‐Rad, Hercules, CA). In a typical experiment, 2 μM WT and variant apo‐YggS forms in 50 mM NaHEPES, pH 7.5, 50 mM NaCl, and Sypro Orange (5x, Thermo Scientific) were mixed with various ligands (total volume of 25 μl) in a 96‐well PCR plate. Fluorescence was measured from 25°C to 95°C in 0.4°C/30 s steps (excitation 450–490 nm; detection 560–580 nm). All samples were run in triplicate. Denaturation profiles were analyzed as described in Nardella et al.[40]

T1 sequence (P67080 whole entry): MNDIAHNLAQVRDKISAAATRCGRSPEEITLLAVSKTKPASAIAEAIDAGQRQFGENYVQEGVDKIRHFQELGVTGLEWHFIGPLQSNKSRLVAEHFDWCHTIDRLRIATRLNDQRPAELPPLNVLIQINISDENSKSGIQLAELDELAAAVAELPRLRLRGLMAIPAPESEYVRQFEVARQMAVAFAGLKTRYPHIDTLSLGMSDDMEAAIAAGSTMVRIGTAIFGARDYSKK

Molecule: Cc1ncc(COP(=O)(O)O)c(C)c1O [4dPNP]
- change in fluorescence emission attributable to binding (apo‐YggS): could only be detected with PL and PNP

Molecule: Cc1ncc(CO)c(CO)c1O [PN, pyridoxine]
- change in fluorescence emission attributable to binding (apo‐YggS): could only be detected with PL and PNP

B1: K36A/K38A/K233A/K234A: E. coli YggS triple lysine variant (protein)
chain: MNDIAHNLAQVRDKISAAATRCGRSPEEITLLAVSATAPASAIAEAIDAGQRQFGENYVQEGVDKIRHFQELGVTGLEWHFIGPLQSNKSRLVAEHFDWCHTIDRLRIATRLNDQRPAELPPLNVLIQINISDENSKSGIQLAELDELAAAVAELPRLRLRGLMAIPAPESEYVRQFEVARQMAVAFAGLKTRYPHIDTLSLGMSDDMEAAIAAGSTMVRIGTAIFGARDYSAA
modifications: left off: His-tag, C-terminal, state not stated
notes: E. coli YggS triple lysine variant
- capability to bind PLP covalently as a Schiff base [1]: lost the capability to bind PLP covalently
- T m (°C) Apo +2 μM PLP [2]: 68.9 ± 0.1 °C
- T m (°C) Apo + 300 μM PLP [2]: 69.6 ± 0.1 °C
- T m (°C) Apo [2]: 68.8 ± 0.1 °C

B2: K36A/K137A/K233A/K234A: E. coli YggS triple lysine variant (protein)
chain: MNDIAHNLAQVRDKISAAATRCGRSPEEITLLAVSATKPASAIAEAIDAGQRQFGENYVQEGVDKIRHFQELGVTGLEWHFIGPLQSNKSRLVAEHFDWCHTIDRLRIATRLNDQRPAELPPLNVLIQINISDENSASGIQLAELDELAAAVAELPRLRLRGLMAIPAPESEYVRQFEVARQMAVAFAGLKTRYPHIDTLSLGMSDDMEAAIAAGSTMVRIGTAIFGARDYSAA
modifications: left off: His-tag, C-terminal, state not stated
notes: as for B1
- T m (°C) Apo +2 μM PLP [2]: 64.7 ± 0.1 °C
- T m (°C) Apo + 300 μM PLP [2]: 66.0 ± 0.1 °C
- T m (°C) Apo [2]: 64.6 ± 0.1 °C

B3: K36A/K38A/K137A/K233A/K234A: E. coli YggS quadruple lysine variant (protein)
chain: MNDIAHNLAQVRDKISAAATRCGRSPEEITLLAVSATAPASAIAEAIDAGQRQFGENYVQEGVDKIRHFQELGVTGLEWHFIGPLQSNKSRLVAEHFDWCHTIDRLRIATRLNDQRPAELPPLNVLIQINISDENSASGIQLAELDELAAAVAELPRLRLRGLMAIPAPESEYVRQFEVARQMAVAFAGLKTRYPHIDTLSLGMSDDMEAAIAAGSTMVRIGTAIFGARDYSAA
modifications: left off: His-tag, C-terminal, state not stated
notes: E. coli YggS quadruple lysine variant
- capability to bind PLP covalently as a Schiff base [1]: lost the capability to bind PLP covalently
- T m (°C) Apo +2 μM PLP [2]: 68.8 ± 0.1 °C
- T m (°C) Apo + 300 μM PLP [2]: 69.1 ± 0.3 °C
- T m (°C) Apo [2]: 68.7 ± 0.1 °C

Reference: PMC9601805, “Characterization of the Escherichia coli pyridoxal 5′‐phosphate homeostasis protein (YggS): Role of lysine residues in PLP binding and protein stability” (Protein Science : A Publication of the Protein Society, 2022)
